Article PMC7432852, “2-Ketoglutarate-Generated In Vitro Enzymatic Biosystem Facilitates Fe(II)/2-Ketoglutarate-Dependent Dioxygenase-Mediated C–H Bond Oxidation for (2S,3R,4S)-4-Hydroxyisoleucine Synthesis” (International Journal of Molecular Sciences, 2020)

Tests used:
[1] = test system: LGOX (L-glutamate oxidase); settings: 50 mM Tris-HCl pH 7.0, 30 °C; L-Glu 0.5–20 mM
Text: initial rate of 2-KG formation by HPLC, catalase present, Michaelis-Menten fit on LGOX (L-glutamate oxidase)

[2] = substrate: O=C(O)CCC(=O)C(=O)O; test: initial rate of 4-HIL formation by HPLC, Michaelis-Menten fit; format: biochemical, Bacillus thuringiensis; settings: 50 mM Tris-HCl pH 7.0, 30 °C, co-substrate L-Ile, FeSO4, L-ascorbic acid, 2-KG 1–40 mM
Text: (§1) initial rate of 4-HIL formation by HPLC, Michaelis-Menten fit on IDO (L-Ile dioxygenase)

[3] = substrate: CC[C@H](C)[C@H](N)C(=O)O; test: as above; format: biochemical, Bacillus thuringiensis; settings: 50 mM Tris-HCl pH 7.0, 30 °C, co-substrate 2-KG, FeSO4, L-ascorbic acid, L-Ile 0.5–20 mM
Text: as §1

Km [1]	Molecule	Km [2]	Vmax [2]	kcat [2]	Km [3]	Vmax [3]	kcat [3]
2.65 ± 0.11 mM	N[C@@H](CCC(=O)O)C(=O)O [L-Glu]	–	–	–	–	–	–
–	IDO (L-Ile dioxygenase) (Bacillus thuringiensis) (protein) MKMSGFSIEEKVHEFESKGFLEISNEIFLQEEENHSLLTQAQLDYYNLEDDAYGECRARSYSRYIKYVDSPDYILDNSNDYFQSKEYNYDDGGKVRQFNSINDSFLCNPLIQNIVRFDTEFAFKTNIIDKSKDLIIGLHQVRYKATKERPSFSSPIWLHKDDEPVVFLHLMNLSNTAIGGDNLIANSPREINQFISLKEPLETLVFGQKVFHAVTPLGTECSTEAFRDILLVTFSYKETK	15.12 ± 0.08 mM	19.8 µmol/min/mg	9.18 ± 0.07 s⁻¹	6.34 ± 0.12 mM	8.99 µmol/min/mg	4.18 ± 0.08 s⁻¹
